{"source": "patent US20170268065", "target": "T1, ELK-1 fusion protein (Cell Signaling), P19419", "T1 chain": "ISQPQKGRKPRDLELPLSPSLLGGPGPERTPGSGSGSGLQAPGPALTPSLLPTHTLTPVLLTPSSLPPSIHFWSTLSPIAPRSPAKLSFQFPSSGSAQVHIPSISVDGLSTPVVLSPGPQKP"}
{"protein": "V5-tagged ERK1^Y148H (protein) MAAAAAQGGGGGEPRRTEGVGPGVPGEVEMVKGQPFDVGPRYTQLQYIGEGAYGMVSSAYDHVRKTRVAIKKISPFEHQTYCQRTLREIQILLRFRHENVIGIRDILRASTLEAMRDVYIVQDLMETDLYKLLKSQQLSNDHICYFLHQILRGLKYIHSANVLHRDLKPSNLLINTTCDLKICDFGLARIADPEHDHTGFLTEYVATRWYRAPEIMLNSKGYTKSIDIWSVGCILAEMLSNRPIFPGKHYLDQLNHILGILGSPSQEDLNCIINMKARNYLQSLPSKTKVAWAKLFPKSDSKALDLLDRMLTFNPNKRITVEEALAHPYLEQYYDPTDEPVAEEPFTFAMELDDLPKERLKELIFQETARFQPGVLEAP", "values": [{"measurement": "ERK kinase activity (ELK-1 peptide phosphorylation, IP kinase assay after trametinib exposure)", "value": "diminished residual kinase activity in the setting of trametinib exposure with the common docking domain mutants compared to other alleles"}]}
